Publication doi:10.1101/2023.06.15.545071 (2023)

What was measured:
Experiment in all cases: MST
[1] = target: ETR1 1-307
[2] = target: ETR1 1-598
[3] = target: ETR1 1-157
[4] = target: ETR1 1-407
[5] = target: T1, full-length ETR1, purified and fluorescently labelled (Arabidopsis, UniProt P49333 1-738, fluorescent label (dye and site not stated))
T1 chain: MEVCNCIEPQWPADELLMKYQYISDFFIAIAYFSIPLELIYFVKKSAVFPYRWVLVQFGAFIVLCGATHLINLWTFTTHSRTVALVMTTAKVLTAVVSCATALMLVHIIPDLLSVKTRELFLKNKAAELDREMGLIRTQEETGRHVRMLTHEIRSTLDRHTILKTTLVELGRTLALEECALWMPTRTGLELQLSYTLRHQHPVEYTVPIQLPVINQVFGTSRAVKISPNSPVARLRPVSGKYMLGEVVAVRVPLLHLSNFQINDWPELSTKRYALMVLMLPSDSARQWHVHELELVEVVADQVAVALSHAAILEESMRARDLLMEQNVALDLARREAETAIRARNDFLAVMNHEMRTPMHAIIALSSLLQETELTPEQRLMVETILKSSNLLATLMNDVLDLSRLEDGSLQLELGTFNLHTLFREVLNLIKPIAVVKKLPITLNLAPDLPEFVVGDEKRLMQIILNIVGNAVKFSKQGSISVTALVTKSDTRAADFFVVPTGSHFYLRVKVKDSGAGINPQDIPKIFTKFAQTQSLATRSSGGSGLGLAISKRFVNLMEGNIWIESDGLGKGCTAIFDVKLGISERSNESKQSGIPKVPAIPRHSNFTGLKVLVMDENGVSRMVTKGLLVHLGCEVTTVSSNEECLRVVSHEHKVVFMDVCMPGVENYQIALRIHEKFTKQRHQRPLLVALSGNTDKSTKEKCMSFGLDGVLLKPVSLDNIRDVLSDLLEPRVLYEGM

Kd [1]: 1780 nM
Kd [2]: 2920 nM
Kd [3]: 1520 nM
Kd [4]: 1650 nM
Kd [5]: 1900 nM
B1: synthetic full length PLS peptide PLS(FL) (peptide)
peptide: MKPRLCFNFRRRSISPCYISISYLLVAKLFKLFKIH
